{"source": "patent US20200239537A1", "binders": {"B1": {"name": "α-MeArg4-pyr-1-apelin-13 A2 (12) (peptide)", "peptide": "XRPXLSHKGPXXX", "modifications": "pGlu at 1; αMeArg at 4; Nle at 11; Aib at 12; paraBrPhe at 13"}, "B2": {"name": "α-MeLeu5-pyr-1-apelin-13 A2 (14) (peptide)", "peptide": "XRPRXSHKGPXXX", "modifications": "pGlu at 1; αMeLeu at 5; Nle at 11; Aib at 12; paraBrPhe at 13"}, "B3": {"name": "azaArg4-pyr-1-apelin-13 A2 (16) (peptide)", "peptide": "[pGlu]RP[azaArg]LSHKGP[Nle][Aib][Phe(4-Br)]"}, "B4": {"name": "azaLeu5-pyr-1-apelin-13 A2 (18) (peptide)", "peptide": "XRPRXSHKGPXXX", "modifications": "pGlu at 1; azaLeu at 5; Nle at 11; Aib at 12; paraBrPhe at 13"}, "B5": {"name": "D-Leu5-pyr-1-apelin-13 A2 (8) (peptide)", "peptide": "XRPRXSHKGPXXX", "modifications": "pGlu at 1; D-Leu at 5; Nle at 11; Aib at 12; paraBrPhe at 13"}, "B6": {"name": "N-MeLeu5-pyr-1-apelin-13 A2 (10) (peptide)", "peptide": "XRPRXSHKGPXXX", "modifications": "pGlu at 1; NMeLeu at 5; Nle at 11; Aib at 12; paraBrPhe at 13"}}, "note": "Where no end group is shown, it is not given here. [ ]: non-standard residue; d: D form. Phe(4-Br) = N[C@@H](Cc1ccc(Br)cc1)C(=O)O; pGlu = O=C1CC[C@@H](C(=O)O)N1; Nle = CCCC[C@H](N)C(=O)O; Aib = CC(C)(N)C(=O)O"}
{"biological_target": "wild-type rat apelin receptor tagged at its C-terminus with EGFP (rat) (UniProt Q9JHG3)", "sequence (Q9JHG3 whole entry)": "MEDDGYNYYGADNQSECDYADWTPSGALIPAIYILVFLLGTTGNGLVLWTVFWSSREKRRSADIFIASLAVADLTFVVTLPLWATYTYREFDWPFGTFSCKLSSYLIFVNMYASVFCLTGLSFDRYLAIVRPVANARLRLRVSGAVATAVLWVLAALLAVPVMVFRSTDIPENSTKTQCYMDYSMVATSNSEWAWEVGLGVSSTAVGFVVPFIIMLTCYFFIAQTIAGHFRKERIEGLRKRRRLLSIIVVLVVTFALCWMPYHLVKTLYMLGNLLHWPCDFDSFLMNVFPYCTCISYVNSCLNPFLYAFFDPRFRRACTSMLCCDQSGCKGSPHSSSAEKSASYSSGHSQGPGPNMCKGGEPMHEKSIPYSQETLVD", "assay": "displacement of 0.2 nM [125I]-pyr-1-apelin-13; membranes of CHO cells expressing rat apelin receptor-EGFP", "units": {"Ki": "nM", "factor of weaker affinity compared to 1": "fold"}}
{"binder": "B1", "Ki": 0.56, "factor of weaker affinity compared to 1": 2}
{"binder": "B2", "Ki": 0.17}
{"binder": "B3", "Ki": 1, "factor of weaker affinity compared to 1": 3}
{"binder": "B4", "Ki": 0.13}
{"binder": "B5", "Ki": 0.12}
{"binder": "B6", "Ki": 0.1}
